Assay results reported in patent US20170291955A1.

Tests used:
KI_II (mouse; human) [1] = molecular target: KI_II (mouse; human) (UniProt P70424); test: SPR (ProteOn), variant captured, 39S injected; apparent affinity
KI_II (mouse; human) [2] = molecular target: KI_II (mouse; human) (UniProt P70424); test: SPR (ProteOn XPR36), variant captured by anti-Her2 polyclonal antibody, 39S injected; apparent affinity
KO_I (mouse; human) = KO_I (mouse; human) (UniProt P70424); test: as above

Kd (KI_II (mouse; human) [1]): 0.168 nM
Kd (KI_II (mouse; human) [2]): 0.163 nM
Kd (KO_I (mouse; human)): 0.095 nM
B1: 39S antibody (antibody, V domains shown)
VH: EVQLVESGGGLVKPGGSLRLSCAASGFTFSSYSMSWVRQAPGKGLEWVSSISSSSSYIYYADSVKGRFTISRDNAKNSLYLQMNSLRAEDTAVYYCARGGDAYNYYYFDYWGQGTLVTVSS
VL: DIVMTQTPLSLSVTPGQPASISCKSSQSVFFRSNNKNILAWYLQKPGQPPQLLIYWASSRESGVPDRFSGSGSGTDFTLKISRVEAEDVGVYYCQQYFGSPFTFGPGTKVDIK
